Test results: patent publication US20190077864A1 (ONCOMED PHARMACEUTICALS, published 2019)
Values belong to the molecule of their own block, whether it stands above or below them.

Columns and labels:
[1] = target: murine TIGIT (mTIGIT) on B3Z T-cell hybridoma cells (mouse) (UniProt P86176); test: cell-based or functional assay
[2] = target: murine TIGIT (mTIGIT) tagged with FLAG and GFP, on cells (mouse) (UniProt P86176); test: cell-based or functional assay
hPVR-rbFc fusion protein = target: T1, hPVR-rbFc fusion protein (human, UniProt P15151 21-343); test: flow cytometry of hPVR-rbFc on HEK-293T cells with hTIGIT-CD4TM-GFP, detected with anti-rabbit Fc-PE, no antibody added
T1 construct: extracellular domain; Expressed in CHO cells, purified on protein A; also called human PVR-rabbit Fc fusion protein; not shown: rabbit Fc region
T1 sequence (looked up): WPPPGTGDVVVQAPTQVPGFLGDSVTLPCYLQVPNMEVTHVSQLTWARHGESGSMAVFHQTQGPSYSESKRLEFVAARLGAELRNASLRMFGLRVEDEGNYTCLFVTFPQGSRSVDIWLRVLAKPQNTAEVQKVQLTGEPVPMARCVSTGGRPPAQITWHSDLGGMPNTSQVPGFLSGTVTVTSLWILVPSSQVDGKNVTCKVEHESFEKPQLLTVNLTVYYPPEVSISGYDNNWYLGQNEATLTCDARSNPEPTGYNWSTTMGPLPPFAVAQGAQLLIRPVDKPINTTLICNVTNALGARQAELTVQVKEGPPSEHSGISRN
Protocol: FIGS. 19A and 19B. FACS analysis of anti-TIGIT antibody blocking binding of human TIGIT to PVR. […] Transfected cells were incubated with soluble human PVR-Fc fusion protein in the presence of antibodies generated to TIGIT (313R19, 313M26, or 313M32) at concentrations of 10, 2, or 0.4 μg/ml or no antibody and analyzed by flow cytometry. Specific binding is indicated by the presence of a diagonal signal within a FACS plot. […] Specific binding is indicated by the presence of a diagonal signal within a FACS plot.
After 16 hours, transfected cells were suspended in ice cold HBSS containing 2% FBS and heparin and incubated on ice with 0.5 μg/ml hPVR-rbFc fusion protein in the presence of anti-TIGIT antibodies 313R19, 313M26, or 313M32 for 60 minutes. Antibody 313R19 is a humanized version of a rabbit anti-TIGIT antibody. 313R19 binds mouse and human TIGIT. The antibodies were tested at concentrations of 10, 2, and 0.4 ug/ml. Cells were incubated without antibody or without hPVR-rbFc as controls. A second incubation with 100 μl PE-conjugated anti-rabbit Fc secondary antibody was performed to detect cells bound by the hPVR-rbFc fusion protein. The cells were analyzed on a FACSCanto instrument (BD Biosciences) and the data was processed using FlowJo software.

[3] = target: T2, mouse TIGIT ECD-CD4TM-GFP on HEK-293T cells (mouse, UniProt P86176 29-148); test: flow cytometry of rabbit antibody supernatant on HEK-293T cells transiently transfected with mouse TIGIT ECD-CD4TM-GFP; antibody signal against GFP
T2 construct: The legend names the construct as mouse TIGIT ECD; also called mouse TIGIT-CD4TM-GFP; mTIGIT-CD4TM-GFP; not shown: transmembrane domain of CD4 (CD4TM); GFP (green fluorescent protein)
T2 sequence: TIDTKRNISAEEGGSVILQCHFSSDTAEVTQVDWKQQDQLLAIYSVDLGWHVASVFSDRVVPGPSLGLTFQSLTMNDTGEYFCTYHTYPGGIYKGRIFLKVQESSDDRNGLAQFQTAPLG

[4] = target: T2, mouse TIGIT ECD-CD4TM-GFP on HEK-293T …; test: flow cytometry, 1 µg/ml antibody on transiently transfected HEK-293T cells, PE-conjugated anti-Fc secondary, signal against TIGIT-GFP
Protocol: The TIGIT variants were evaluated by FACS with anti-hTIGIT antibodies. […] After 16 hours, transfected cells were suspended in ice cold HBSS containing 2% FBS and incubated on ice with 1 μg/ml anti-hTIGIT antibodies 313R12, 313M32, or 313M34 for 30 minutes. 313M34 is an anti-hTIGIT antibody that was generated based upon the amino acid sequences of the 10A7 antibody described in U.S. Publication 2009/0258013. The 10A7 antibody is an anti-mouse TIGIT antibody that binds both mouse TIGIT and human TIGIT. A second incubation with 50 μl PE-conjugated anti-Fc secondary antibody was performed to detect cells bound by the antibodies. The cells were analyzed on a FACSCanto instrument (BD Biosciences) and the data was processed using FlowJo software.

human TIGIT = target: T3, human TIGIT (human, UniProt Q495A1 22-141, limits assumed); test: Biacore, preliminary; format not stated
T3 construct: also called hTIGIT
T3 sequence: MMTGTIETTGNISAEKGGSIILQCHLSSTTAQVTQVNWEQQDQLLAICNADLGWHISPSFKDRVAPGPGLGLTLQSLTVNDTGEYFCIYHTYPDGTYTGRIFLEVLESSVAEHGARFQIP

- ratio of IL-2 secretion in response to mPVR-expressing tumor cells to that in response to mPVR-negative tumor cells (ELISA) [1]: < 1
Molecule: murine PVR (mPVR) on cells (ligand)
- ratio of NK-92 cytotoxicity against 721.221-mPVR cells to that against parental 721.221 cells (calcein release) [2]: < 1

- binding result (hPVR-rbFc fusion protein): binds
B1: hTIGIT-CD4TM-GFP on HEK-293T cells (receptor)
chain: MMTGTIETTGNISAEKGGSIILQCHLSSTTAQVTQVNWEQQDQLLAICNADLGWHISPSFKDRVAPGPGLGLTLQSLTVNDTGEYFCIYHTYPDGTYTGRIFLEVLESSVAEHGARFQIP
notes: Cell surface fusion protein, transiently expressed; also called human TIGIT ECD-CD4TM-GFP; FLAG-hTIGIT-CD4TM-GFP; not shown: transmembrane domain of CD4 (CD4TM); C-terminal GFP protein tag

- binding result [3]: binds
B2: anti-TIGIT antibody 313Rb1 (antibody, V domains shown)
VH: QVQLESEGGLFKPTDTLTLTCTVSGSSLSSSYMSWVRQAPGKGLEWIGIIGSNGNTYYANWAKGRFTISKTSTTVELKITSPTTEDTATYFCARGGYRTSGMDPWGPGTLVTVSS
VL: DIVMTQTPASVEVAVGGTVTIKCQASQSISSYLNWYQQKPGQPPKLLIYDALKLASGVPSRFSGSGSGTEYTLTISGVESADAATYYCQQEHSVGNVDNVFGGGTEVVVKR
notes: Rabbit antibody raised against the extracellular domain of mouse TIGIT

- binding result [4]: binds
B3: anti-TIGIT antibody 313R12 (antibody, mouse IgG2a, kappa, V domains shown)
VH: QVQLESEGGLFKPTDTLTLTCTVSGSSLSSSYMSWVRQAPGKGLEWIGIIGSNGNTYYANWAKGRFTISKTSTTVELKITSPTTEDTATYFCARGGYRTSGMDPWGPGTLVTVSS
VL: DIVMTQTPASVEVAVGGTVTIKCQASQSISSYLNWYQQKPGQPPKLLIYDALKLASGVPSRFSGSGSGTEYTLTISGVESADAATYYCQQEHSVGNVDNVFGGGTEVVVKR
notes: Chimeric antibody: variable regions of 313Rb1 in a mouse IgG2a format

- Kd (human TIGIT): 2 nM
B4: anti-TIGIT antibody 313R19 (antibody, human IgG1, kappa, V domains shown)
VH: QVQLQESGPGLVKPSETLSLTCTVSGFSLSSSYMSWIRQPPGKGLEWIGIIGSNGNTYYANWAKGRVTISKSSNQVSLKLSSVTAADTAVYYCARGGYRTSGMDPWGQGTLVTVSS
VL: DIQMTQSPSSLSASVGDRVTITCQASQNIYSDLAWYQQKPGKAPKLLIYRASTLASGVPSRFSGSGSGTDFTLTISSLQPEDFATYYCQQEHLVAWIYNVFGQGTKVEIKR
notes: Humanized rabbit antibody, human IgG1
